Values belong to the binder of their own block, whether it stands above or below them.
Legend:
[1] = biological target: T1, biotinylated interleukin 8 (IL8-biotin) (human, UniProt P10145 21-99, reacted with biotin-XX-NHS ester (1 mM); labelled residues not stated); test: fraction of Fab bound by a large excess of biotin-IL-8, removed on avidin magnetic latex
T1 construct: mature; also called IL-8 labeled with biotin; biotinylated IL-8
T1 sequence: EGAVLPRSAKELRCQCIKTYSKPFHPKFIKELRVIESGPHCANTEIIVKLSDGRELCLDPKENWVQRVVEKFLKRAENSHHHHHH

[2] = biological target: T1, biotinylated interleukin 8 (IL8-biotin); test: solution equilibrium with 1e-10 M biotin-IL-8, B/F vs B plot, free Fab by sandwich ELISA
Procedure: The equilibrium binding constants of individual monoclonal antibodies were determined by analysis of the total and free antibody concentrations after a binding equilibrium was established in the presence of biotinylated IL-8 at 10⁻¹⁰ M in a 1% solution of bovine serum albumin buffered at pH 8.0. […] The supernatant solution was removed from the microtiter wells containing the magnetic particles and the antibody concentration was determined. The concentration of total antibody added to the individual wells was determined by quantifying the antibody in a sample that was not mixed with IL-8. […] When determining the concentration of total antibody in an equilibrium mixture, the antibody concentration is the amount of total antibody in the mixture determined from the assay described below multiplied by the immunoreactive fraction. Similarly, when calculating the free antibody in an equilibrium mixture after the removal of IL-8, the non-immunoreactive fraction of antibody is subtracted from the free antibody concentration determined by the assay described below. The bound fraction, B, is determined by subtracting the free immunoreactive antibody concentration in the mixture, F, from the total immunoreactive antibody concentration in the mixture. […]

- % Immunoreactive Protein [1]: 90%
B1: M1-10 (Fab)
heavy: QVQLVQSGGGLVHPGGSLRLSCEGSGFIFRNHPIHWVRQAPGKGLEWVSVSGIGGDTYYADSVKGRFSISRDNAKNSLYLQMNSLRAEDMAVYYCAREYYYGSGSYRVDYYYYGMDVWGQGTTVTVSSASTKGPSVFPLAPSSKSTSGGTAALGCLVKDYFPEPVTVSWNSGALTSGVHTFPAVLQSSGLYSLSSVVTVPSSSLGTQTYICNVNHKPSNTKVDKKAEPKSHHHHHH
light: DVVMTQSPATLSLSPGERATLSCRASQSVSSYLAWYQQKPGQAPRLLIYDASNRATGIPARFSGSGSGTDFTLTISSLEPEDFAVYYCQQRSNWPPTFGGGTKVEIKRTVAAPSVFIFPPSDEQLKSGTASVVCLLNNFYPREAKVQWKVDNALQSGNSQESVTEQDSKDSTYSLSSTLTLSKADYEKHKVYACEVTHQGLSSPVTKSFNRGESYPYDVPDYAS
notes: also called M1_10H; M1_10L

- % Immunoreactive Protein [1]: 67%
- Ka [2]: 6.6e+10 M⁻¹
B2: M1-21 (Fab)
heavy: QVQLVQSGGGVVQPGKSLRLSCAASGFTFSYYGMHWVRQVPGKGLEWVAAVWYDGSTTYSPDSVKGRFTISRDDSKNTLYLQMSSLRAEDTAVYYCARDRVGLFDYWGQGTLVTVSSASTKGPSVFPLAPSSKSTSGGTAALGCLVKDYFPEPVTVSWNSGALTSGVHTFPAVLQSSGLYSLSSVVTVPSSSLGTQTYICNVNHKPSNTKVDKKAEPKSHHHHHH
light: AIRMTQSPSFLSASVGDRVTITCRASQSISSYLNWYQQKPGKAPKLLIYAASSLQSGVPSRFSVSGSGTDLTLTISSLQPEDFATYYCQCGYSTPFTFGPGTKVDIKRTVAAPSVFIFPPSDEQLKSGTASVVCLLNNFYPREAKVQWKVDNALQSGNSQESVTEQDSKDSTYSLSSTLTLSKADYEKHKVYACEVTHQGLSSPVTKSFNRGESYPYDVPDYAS
notes: also called M1_21H; M1_21L

Source: patent US20070111259A1 (BIOSITE, published 2007)
